Reference: doi:10.1101/2024.03.23.586376 (bioRxiv, 2024)

Biological target: RagC (human (endogenous in H1HeLa), UniProt Q9HB90 1-399)
Assay: co-IP

Sequence of RagC (Q9HB90 whole entry): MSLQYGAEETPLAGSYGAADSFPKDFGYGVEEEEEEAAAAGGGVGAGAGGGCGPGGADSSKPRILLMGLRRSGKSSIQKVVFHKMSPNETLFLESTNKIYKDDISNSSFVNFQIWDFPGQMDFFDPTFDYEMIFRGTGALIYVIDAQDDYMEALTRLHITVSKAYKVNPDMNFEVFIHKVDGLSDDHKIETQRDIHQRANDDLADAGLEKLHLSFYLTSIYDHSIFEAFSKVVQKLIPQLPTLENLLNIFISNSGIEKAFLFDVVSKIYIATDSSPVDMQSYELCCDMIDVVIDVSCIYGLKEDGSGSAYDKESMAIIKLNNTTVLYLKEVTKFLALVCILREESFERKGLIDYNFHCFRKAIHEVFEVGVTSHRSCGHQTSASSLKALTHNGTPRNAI

Binder	TFEB/RagC ratio in the co-IP (densitometry), EV-D68-infected cells	TFEB/RagC ratio in the co-IP (densitometry), mock-infected cells
wild-type TFEB (transcription factor EB), C-terminal GFP-tagged construct (natural protein, UniProt P19484 1-476, looked up) MASRIGLRMQLMREQAQQEEQRERMQQQAVMHYMQQQQQQQQQQLGGPPTPAINTPVHFQSPPPVPGEVLKVQSYLENPTSYHLQQSQHQKVREYLSETYGNKFAAHISPAQGSPKPPPAASPGVRAGHVLSSSAGNSAPNSPMAMLHIGSNPERELDDVIDNIMRLDDVLGYINPEMQMPNTLPLSSSHLNVYSSDPQVTASLVGVTSSSCPADLTQKRELTDAESRALAKERQKKDNHNLIERRRRFNINDRIKELGMLIPKANDLDVRWNKGTILKASVDYIRRMQKDLQKSRELENHSRRLEMTNKQLWLRIQELEMQARVHGLPTTSPSGMNMAELAQQVVKQELPSEEGPGEALMLGAEVPDPEPLPALPPQAPLPLPTQPPSPFHHLDFSHSLSFGGREDEGPPGYPEPLAPGHGSPFPSLSKKDLDLMLLDDSLLPLASDPLLSTMSPEASKASSRRSSFSMEEGDVL	0.4	1.04
Δ30-TFEB, mutant TFEB construct lacking the first 30 amino acids (RagC binding site), C-terminal GFP-tagged (domain or fragment, UniProt P19484 31-476, looked up) MHYMQQQQQQQQQQLGGPPTPAINTPVHFQSPPPVPGEVLKVQSYLENPTSYHLQQSQHQKVREYLSETYGNKFAAHISPAQGSPKPPPAASPGVRAGHVLSSSAGNSAPNSPMAMLHIGSNPERELDDVIDNIMRLDDVLGYINPEMQMPNTLPLSSSHLNVYSSDPQVTASLVGVTSSSCPADLTQKRELTDAESRALAKERQKKDNHNLIERRRRFNINDRIKELGMLIPKANDLDVRWNKGTILKASVDYIRRMQKDLQKSRELENHSRRLEMTNKQLWLRIQELEMQARVHGLPTTSPSGMNMAELAQQVVKQELPSEEGPGEALMLGAEVPDPEPLPALPPQAPLPLPTQPPSPFHHLDFSHSLSFGGREDEGPPGYPEPLAPGHGSPFPSLSKKDLDLMLLDDSLLPLASDPLLSTMSPEASKASSRRSSFSMEEGDVL	0.22	0.18
